In paper PMC10172142 one finds stoichiometry N data, which are given here for one substance.

Experiment [1] addresses CPR Wolfebacteria Fe-SodFM1, wild type (CPR Wolfebacteria (uncultured bacterial candidate phyla radiation)). The experiment in a line: SEC; analytical size exclusion chromatography, Superdex 200 10/300 increase, 20 mM Tris pH 7.5, 150 mM NaCl, calibrated with molecular weight standards. (In gel filtration, larger molecules generally elute earlier.)
The target is the same in experiment [2]. The experiment in a line: crystal structure; sitting drop vapour diffusion at 20 °C; 100 mM sodium acetate trihydrate pH 4.5, 25% wt/vol polyethylene glycol 3350; data collected at 100 K.

As for “CPR Wolfebacteria Fe-SodFM1, wild type (enzyme)”, the stoichiometry N in experiment [1] and in experiment [2] was 2 each time.

The stoichiometry N is the number of molecules, sites or subunits per partner or assembly.
